Data taken from IntAct's records for PubMed 26779609.

B1: Partner of xrn-2 protein 1 (Caenorhabditis elegans), Q21738 (parent)
chain: MGKLEDVEAEKKLWESDDAWELRKAFMLAHYDDYPKIQLQCLSQLFINVTLLGCEYSQTLMQKIRTMGAGIAANKDRTKTGSYVKASAAKKRQAVKTSDLEGASDESKKVKMEKSPSPVARESFDERLGKLKASLAMTPHHLTGEQMMKTATNSCLMKWHVNKINQKIEITIDRYVAFRHTFSQYCVDPRDCAINTLIESILSCDAAVHEESYEIRFDGVPVDECYAKSVTRRLAKIKSAVSNGAHTVKGLTTYLDAVNMSMIQNTQKLEGWSQQLDLVTADLLLSSRVLSSTECTKPAMATIANQMSEDVCQLILNDKINVINSMKSHSSLAFQ
partner: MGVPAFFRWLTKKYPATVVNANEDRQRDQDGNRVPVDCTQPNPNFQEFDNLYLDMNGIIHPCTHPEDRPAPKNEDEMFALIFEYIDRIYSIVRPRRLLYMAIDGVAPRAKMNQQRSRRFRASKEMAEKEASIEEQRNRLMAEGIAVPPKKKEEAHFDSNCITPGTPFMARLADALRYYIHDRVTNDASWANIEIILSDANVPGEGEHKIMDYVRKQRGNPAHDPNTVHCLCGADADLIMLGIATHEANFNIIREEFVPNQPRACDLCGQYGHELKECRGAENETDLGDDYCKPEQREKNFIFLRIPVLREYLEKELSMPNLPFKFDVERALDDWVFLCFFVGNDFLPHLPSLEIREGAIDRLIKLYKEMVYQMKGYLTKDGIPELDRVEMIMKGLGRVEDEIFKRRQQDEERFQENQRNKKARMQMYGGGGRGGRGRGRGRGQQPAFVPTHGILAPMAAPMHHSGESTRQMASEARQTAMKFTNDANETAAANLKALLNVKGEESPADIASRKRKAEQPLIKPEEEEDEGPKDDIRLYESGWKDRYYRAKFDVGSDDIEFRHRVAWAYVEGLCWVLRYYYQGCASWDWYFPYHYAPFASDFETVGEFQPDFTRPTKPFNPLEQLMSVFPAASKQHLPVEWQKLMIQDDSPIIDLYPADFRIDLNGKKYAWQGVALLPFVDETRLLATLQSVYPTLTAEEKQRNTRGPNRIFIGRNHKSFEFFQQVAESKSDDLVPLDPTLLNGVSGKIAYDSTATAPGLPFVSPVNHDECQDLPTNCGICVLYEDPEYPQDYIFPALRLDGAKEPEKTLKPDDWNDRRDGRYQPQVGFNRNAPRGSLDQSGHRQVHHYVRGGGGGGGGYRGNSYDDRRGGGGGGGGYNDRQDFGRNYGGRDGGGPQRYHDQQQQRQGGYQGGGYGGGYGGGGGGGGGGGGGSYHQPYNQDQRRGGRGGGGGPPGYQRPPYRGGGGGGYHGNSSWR
B2: CDKN2AIP N-terminal-like protein (Homo sapiens), Q96HQ2 (parent)
chain: MVGGEAAAAVEELVSGVRQAADFAEQFRSYSESEKQWKARMEFILRHLPDYRDPPDGSGRLDQLLSLSMVWANHLFLGCSYNKDLLDKVMEMADGIEVEDLPQFTTRSELMKKHQS
partner: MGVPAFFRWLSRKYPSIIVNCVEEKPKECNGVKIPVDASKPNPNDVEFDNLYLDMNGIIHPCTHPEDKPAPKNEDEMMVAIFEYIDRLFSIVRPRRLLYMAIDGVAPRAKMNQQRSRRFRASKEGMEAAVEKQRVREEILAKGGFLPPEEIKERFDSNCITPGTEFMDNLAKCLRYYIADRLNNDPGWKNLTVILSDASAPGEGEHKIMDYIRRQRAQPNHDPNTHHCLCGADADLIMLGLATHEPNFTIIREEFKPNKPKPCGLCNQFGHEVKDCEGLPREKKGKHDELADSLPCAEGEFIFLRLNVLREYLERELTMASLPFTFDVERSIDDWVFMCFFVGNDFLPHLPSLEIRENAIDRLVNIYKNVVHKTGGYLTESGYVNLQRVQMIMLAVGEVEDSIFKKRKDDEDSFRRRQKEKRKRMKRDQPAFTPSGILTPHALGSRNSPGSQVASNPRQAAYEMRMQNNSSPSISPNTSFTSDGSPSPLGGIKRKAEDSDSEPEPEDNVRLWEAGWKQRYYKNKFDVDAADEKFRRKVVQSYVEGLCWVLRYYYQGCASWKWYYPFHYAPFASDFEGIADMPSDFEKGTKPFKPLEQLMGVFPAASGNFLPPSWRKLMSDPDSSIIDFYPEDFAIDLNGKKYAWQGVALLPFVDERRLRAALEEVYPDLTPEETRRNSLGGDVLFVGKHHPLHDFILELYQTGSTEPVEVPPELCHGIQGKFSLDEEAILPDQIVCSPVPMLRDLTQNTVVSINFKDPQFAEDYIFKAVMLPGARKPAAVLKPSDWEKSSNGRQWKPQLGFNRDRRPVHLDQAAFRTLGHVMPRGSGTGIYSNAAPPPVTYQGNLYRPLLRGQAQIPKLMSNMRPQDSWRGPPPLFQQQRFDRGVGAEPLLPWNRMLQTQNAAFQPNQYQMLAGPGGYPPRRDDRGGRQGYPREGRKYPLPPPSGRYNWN

Variants of: B1
Settings: with xrn2_caeel xrn-2, Q9U299
In the case of MGKLEDVEAEKKLWESDDAWELRKAFMLAHYDDYPKIQLQCLSQLFINVTLLGCEASQTLMQKIRTMGAGIAANKDRTKTGSYVKASAAKKRQAVKTSDLEGASDESKKVKMEKSPSPVARESFDERLGKLKASLAMTPHHLTGEQMMKTATNSCLMKWHVNKINQKIEITIDRYVAFRHTFSQYCVDPRDCAINTLIESILSCDAAVHEESYEIRFDGVPVDECYAKSVTRRLAKIKSAVSNGAHTVKGLTTYLDAVNMSMIQNTQKLEGWSQQLDLVTADLLLSSRVLSSTECTKPAMATIANQMSEDVCQLILNDKINVINSMKSHSSLAFQ [Y56A], the “effect of a mutation on the interaction” value is reported as “disrupting interaction strength”.
With MGKLEDVEAEKKLWESDDAWELRKAFMLAHYDDYPKIQLQCLSQLFINVTLLGAEYSQTLMQKIRTMGAGIAANKDRTKTGSYVKASAAKKRQAVKTSDLEGASDESKKVKMEKSPSPVARESFDERLGKLKASLAMTPHHLTGEQMMKTATNSCLMKWHVNKINQKIEITIDRYVAFRHTFSQYCVDPRDCAINTLIESILSCDAAVHEESYEIRFDGVPVDECYAKSVTRRLAKIKSAVSNGAHTVKGLTTYLDAVNMSMIQNTQKLEGWSQQLDLVTADLLLSSRVLSSTECTKPAMATIANQMSEDVCQLILNDKINVINSMKSHSSLAFQ [C54A] the “effect of a mutation on the interaction” value was “disrupting interaction strength”.

Variants of: B2
Settings: with xrn2_human XRN2, Q9H0D6
For MVGGEAAAAVEELVSGVRQAADFAEQFRSYSESEKQWKARMEFILRHLPDYRDPPDGSGRLDQLLSLSMVWANHLFLGCSANKDLLDKVMEMADGIEVEDLPQFTTRSELMKKHQS [Y81A], the “effect of a mutation on the interaction” value was “disrupting interaction strength”.
